Assay results reported in patent publication US20250043302A1, “MUTATED HYDROXYPHENYLPYRUVATE DIOXYGENASE POLYPEPTIDE, AND CODING GENE AND USE THEREOF” (BEIJING DABEINONG BIOTECHNOLOGY CO., LTD., priority 2021, published 2025).

Test system: Arabidopsis thaliana T1 plants
Test: Mesotrione tolerance of transgenic Arabidopsis thaliana T1 plants (spray, bleached leaf area grade, damage score)
Format: in vivo
Design: Scores: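 damage score 0-100 computed as Σ(N×S)/(T×M)×100 over grades 0-3 with higher meaning more damage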
Details: for Classification and statistics of the grade of pesticide damage: Grade 0 / Classification and statistics of the grade of pesticide damage: Grade 1 / Classification and statistics of the grade of pesticide damage: Grade 2 / Classification and statistics of the grade of pesticide damage: Grade 3: number of plants
In short: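 Read-out: per-plant damage grade 0–3 from proportion of bleached leaf area at 7 DAT (1 <50%, 2 >50%, 3 100%). Plants were T1 transformants, glufosinate-selected, plus wild-type CK, sprayed 18 days post-sowing. Rates: topramezone 25–200, isoxaflutole 35–280, mesotrione 52.5–420 g ai/ha.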

[1] = mesotrione 210 g ai/ha (two-fold field concentration), 7 DAT, Table 3
[2] = mesotrione 210 g ai/ha, number of plants in grade
[3] = mesotrione 420 g ai/ha (4×), 7 DAT, Table 3
[4] = mesotrione 420 g ai/ha, number of plants in grade

B1: AsHPPD-02: nucleotide sequence encoding Avena sativa wild-type HPPD; vector DBN11727 (nucleic acid)
DNA: ATGCCACCTACTCCAGCTACAGCTACTGGTGCTGCTGCTGCTGCCGTTACTCCTGAGCACGCTGCCAGGTCATTCCCCAGGGTGGTTCGCGTGAACCCCAGATCTGATAGGTTCCCAGTTCTGAGCTTCCACCATGTTGAGCTGTGGTGCGCTGATGCTGCTTCTGCTGCTGGCAGGTTCTCTTTCGCTCTTGGTGCTCCACTCGCTGCTAGATCTGATCTGTCTACAGGAAATAGCGCTCATGCCTCACTCCTGCTTCGCTCAGGTGCTTTGGCCTTCCTCTTCACCGCTCCATATGCTCCCCCACCTCAGGAGGCTGCTACTGCTGCTGCTACAGCCTCCATTCCAAGCTTCTCAGCTGATGCCGCTAGAACCTTCGCTGCTGCTCATGGACTTGCCGTGAGGTCTGTTGGTGTTCGCGTGGCTGATGCTGCTGAGGCTTTCAGAGTTTCCGTTGCCGGCGGAGCTAGGCCAGCTTTCGCTCCTGCTGATTTGGGACATGGTTTCGGCCTGGCTGAGGTTGAGCTTTACGGTGACGTGGTTCTCCGCTTCGTGTCTTACCCAGATGAGACTGACCTGCCTTTCCTTCCCGGCTTCGAGAGAGTTTCCTCTCCTGGTGCCGTGGATTACGGCCTGACAAGGTTCGACCACGTGGTTGGAAACGTTCCCGAGATGGCTCCAGTGATCGATTACATGAAGGGCTTCCTTGGATTCCATGAGTTCGCCGAGTTCACTGCTGAGGACGTGGGAACCACTGAGTCCGGTTTGAACTCTGTGGTTCTCGCCAACAATTCTGAGGCTGTTTTGCTCCCTCTGAATGAGCCTGTGCATGGAACCAAGAGGAGAAGCCAGATTCAAACTTACCTGGAGTACCACGGTGGCCCTGGAGTTCAGCATATCGCCCTTGCTTCTAATGATGTGTTGCGCACACTCAGAGAGATGCGCGCCAGAACCCCCATGGGAGGTTTCGAGTTCATGGCCCCACCACAGGCTAAGTACTACGAGGGCGTTAGAAGGATTGCTGGAGACGTGTTGAGCGAGGAGCAGATCAAGGAGTGCCAAGAGCTGGGTGTTCTTGTGGATAGGGATGACCAGGGCGTTCTGCTTCAAATTTTCACTAAGCCAGTGGGCGACCGCCCTACATTCTTCCTTGAGATGATTCAAAGAATCGGCTGCATGGAGAAGGATGAGGTTGGACAGGAGTACCAAAAGGGCGGATGCGGTGGCTTCGGAAAGGGTAACTTCAGCGAGTTGTTCAAGTCAATCGAGGACTACGAGAAGAGCCTCGAGGTGAAGCAGTCAGTGGTTGCCCAAAAGTCCTGA
modifications: AsHPPD-02 Nucleotide Sequence
notes: vector DBN11727
Table 9, mesotrione 210 g ai/ha (2×)
  Resistance evaluation: Non-resistant
Table 9, mesotrione 210 g ai/ha (2×), number of plants at grade 0
  Classification and statistics of the grade of pesticide damage Grade 0: 0
Table 9, mesotrione 210 g ai/ha (2×), number of plants at grade 1
  Classification and statistics of the grade of pesticide damage Grade 1: 0
Table 9, mesotrione 210 g ai/ha (2×), number of plants at grade 2
  Classification and statistics of the grade of pesticide damage Grade 2: 0
Table 9, mesotrione 210 g ai/ha (2×), number of plants at grade 3
  Classification and statistics of the grade of pesticide damage Grade 3: 16
Table 9, mesotrione 210 g ai/ha (2×), pesticide damage score
  Scores: 100
Table 9, mesotrione 420 g ai/ha (4×)
  Resistance evaluation: Non-resistant
Table 9, mesotrione 420 g ai/ha (4×), number of plants at grade 0
  Classification and statistics of the grade of pesticide damage Grade 0: 0
Table 9, mesotrione 420 g ai/ha (4×), number of plants at grade 1
  Classification and statistics of the grade of pesticide damage Grade 1: 0
Table 9, mesotrione 420 g ai/ha (4×), number of plants at grade 2
  Classification and statistics of the grade of pesticide damage Grade 2: 0
Table 9, mesotrione 420 g ai/ha (4×), number of plants at grade 3
  Classification and statistics of the grade of pesticide damage Grade 3: 16
Table 9, mesotrione 420 g ai/ha (4×), pesticide damage score
  Scores: 100
Table 12, mesotrione 210 g ai/ha (2×)
  Resistance evaluation: Non-resistant
Table 12, mesotrione 210 g ai/ha (2×), number of plants at grade 0
  Classification and statistics of the grade of pesticide damage Grade 0: 0
Table 12, mesotrione 210 g ai/ha (2×), number of plants at grade 1
  Classification and statistics of the grade of pesticide damage Grade 1: 0
Table 12, mesotrione 210 g ai/ha (2×), number of plants at grade 2
  Classification and statistics of the grade of pesticide damage Grade 2: 0
Table 12, mesotrione 210 g ai/ha (2×), number of plants at grade 3
  Classification and statistics of the grade of pesticide damage Grade 3: 16
Table 12, mesotrione 210 g ai/ha (2×), pesticide damage score
  Scores: 100
Table 12, mesotrione 420 g ai/ha (4×)
  Resistance evaluation: Non-resistant
Table 12, mesotrione 420 g ai/ha (4×), number of plants at grade 0
  Classification and statistics of the grade of pesticide damage Grade 0: 0
Table 12, mesotrione 420 g ai/ha (4×), number of plants at grade 1
  Classification and statistics of the grade of pesticide damage Grade 1: 0
Table 12, mesotrione 420 g ai/ha (4×), number of plants at grade 2
  Classification and statistics of the grade of pesticide damage Grade 2: 0
Table 12, mesotrione 420 g ai/ha (4×), number of plants at grade 3
  Classification and statistics of the grade of pesticide damage Grade 3: 16
Table 12, mesotrione 420 g ai/ha (4×), pesticide damage score
  Scores: 100
In vivo
  tolerance to mesotrione (in words): no tolerance
Mesotrione 210 g ai/ha
  Resistance evaluation: Non-resistant
  Scores: 100
[1]
  Resistance evaluation: non-resistant (non-resistant plants (scores 68-100))
  Classification and statistics of the grade of pesticide damage: Grade 0: 0
  Classification and statistics of the grade of pesticide damage: Grade 1: 0
  Classification and statistics of the grade of pesticide damage: Grade 2: 0
  Classification and statistics of the grade of pesticide damage: Grade 3: 16
[2]
  Classification and statistics of the grade of pesticide damage Grade 0: 0
  Classification and statistics of the grade of pesticide damage Grade 1: 0
  Classification and statistics of the grade of pesticide damage Grade 2: 0
  Classification and statistics of the grade of pesticide damage Grade 3: 16
Mesotrione 420 g ai/ha
  Resistance evaluation: Non-resistant
  Scores: 100
[3]
  Resistance evaluation: non-resistant (non-resistant plants (scores 68-100))
  Classification and statistics of the grade of pesticide damage: Grade 0: 0
  Classification and statistics of the grade of pesticide damage: Grade 1: 0
  Classification and statistics of the grade of pesticide damage: Grade 2: 0
  Classification and statistics of the grade of pesticide damage: Grade 3: 16
[4]
  Classification and statistics of the grade of pesticide damage Grade 0: 0
  Classification and statistics of the grade of pesticide damage Grade 1: 0
  Classification and statistics of the grade of pesticide damage Grade 2: 0
  Classification and statistics of the grade of pesticide damage Grade 3: 16
Pesticide damage score 0-100, mesotrione 210 g ai/ha (two-fold field concentration), 7 DAT, Table 3
  Scores: 100
Pesticide damage score 0-100, mesotrione 420 g ai/ha (4×), 7 DAT, Table 3
  Scores: 100
